Data: patent US20220031842A1 (JIANGSU HENGRUI MEDICINE, published 2022)

T1: LAG-3 extracellular domain with a Flag tag (human, UniProt P18627 23-434)
T1 construct: also called LAG-3-Flag; LAG-3-Flag antigen
T1 sequence: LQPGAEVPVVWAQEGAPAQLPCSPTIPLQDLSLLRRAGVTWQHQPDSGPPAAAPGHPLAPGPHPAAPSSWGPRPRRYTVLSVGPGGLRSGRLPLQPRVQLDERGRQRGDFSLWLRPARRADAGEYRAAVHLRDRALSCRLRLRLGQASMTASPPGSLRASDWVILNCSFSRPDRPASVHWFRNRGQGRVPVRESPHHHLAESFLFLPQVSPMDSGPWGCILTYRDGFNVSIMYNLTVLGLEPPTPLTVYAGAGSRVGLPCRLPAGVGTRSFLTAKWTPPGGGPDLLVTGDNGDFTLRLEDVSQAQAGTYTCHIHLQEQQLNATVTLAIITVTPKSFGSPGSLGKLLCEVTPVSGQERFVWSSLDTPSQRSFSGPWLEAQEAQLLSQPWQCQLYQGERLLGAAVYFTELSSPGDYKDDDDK

T2: Fusion protein of LAG-3 extracellular region and mIgG2a Fc (human)
T2 construct: Limits of the signal peptide are marked only by lost underlining; also called LAG-3-mFc; LAG-3-mFc fusion protein
T2 chain: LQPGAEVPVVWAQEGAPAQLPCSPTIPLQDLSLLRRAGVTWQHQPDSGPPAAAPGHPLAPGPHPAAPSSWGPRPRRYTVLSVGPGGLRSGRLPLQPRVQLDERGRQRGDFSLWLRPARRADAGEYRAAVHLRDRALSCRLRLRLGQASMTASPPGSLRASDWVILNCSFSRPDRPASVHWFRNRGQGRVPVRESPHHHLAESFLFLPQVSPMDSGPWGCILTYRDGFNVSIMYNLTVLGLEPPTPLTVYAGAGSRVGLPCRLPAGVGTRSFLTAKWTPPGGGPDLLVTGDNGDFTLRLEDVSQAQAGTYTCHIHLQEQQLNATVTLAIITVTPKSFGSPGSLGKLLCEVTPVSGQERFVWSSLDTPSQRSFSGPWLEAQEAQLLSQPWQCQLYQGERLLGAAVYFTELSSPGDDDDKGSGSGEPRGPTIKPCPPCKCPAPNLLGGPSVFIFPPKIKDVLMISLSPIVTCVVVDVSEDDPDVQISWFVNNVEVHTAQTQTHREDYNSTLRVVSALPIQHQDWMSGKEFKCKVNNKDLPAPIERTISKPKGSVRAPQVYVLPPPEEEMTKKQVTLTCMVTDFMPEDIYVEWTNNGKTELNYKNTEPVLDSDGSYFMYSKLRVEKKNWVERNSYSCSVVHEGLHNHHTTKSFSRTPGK


Tests used:
[1] = target: T1, LAG-3 extracellular domain with a Flag …; assay: SPR (Biacore), antibody captured on anti-human capture chip, LAG-3-Flag in flow
Excerpt: 2. […] Then, the LAG-3-Flag antigen (produced in-house, SEQ ID NO:1) was flowed through the surface of the biochip, and the reaction signal was detected real time using a Biacore instrument to obtain the binding and dissociation curves, the value of affinity was obtained by fitting, see table 10 below. After each cycle of dissociation was finished in the experiment, the biochip was washed and regenerated with a regeneration solution provided in the human anti-capture kit.

[2] = target: T2, Fusion protein of LAG-3 extracellular …; assay: ELISA, LAG-3-mFc captured by anti-mouse Fc on plate (which fusion: inferred)
Excerpt: The binding ability of anti-LAG-3 antibody to human LAG-3 protein was detected by ELISA assay. LAG-3 fusion protein with Fc or mFc tag was immobilized into 96-well microtiter plate by binding to anti-Fc or anti-mFc antibody coated on the microtiter plate, the strength of the signal after the addition of the antibody was used to determine the binding activity of the antibody to LAG-3, the specific experimental method is as follows.
The goat anti-human Fc antibody (Jackson Immuno Research, Cat No. 109-005-008) or goat anti-mouse Fc antibody (Sigma, Cat No. M3534-1ML) was diluted to a concentration of 2 μg/ml with PBS buffer at pH 7.4 (Sigma, Cat No. P4417-100TAB), and added to a 96-well plate at a volume of 50 μl/well and then, the plate was incubated in the incubator at 37° C. for 2 hours. After discarding the liquid, the plates were blocked with 200 μl/well of blocking solution containing 5% skim milk (Bright Dairy, skim milk powder) in PBS, and incubated in the incubator at 37° C. for 2.5 hours or overnight at 4° C. (16-18 hours). After blocking, the blocking solution was discarded and the plate was washed 5 times with PBST buffer (PH7.4 PBS containing 0.05% tween-20). LAG-3-Fc fusion protein (SEQ ID NO:3, produced in-house) or LAG-3-mFc fusion protein (SEQ ID NO: 4, produced in-house) was diluted with sample diluent (PH7.4 PBS containing 1% BSA) to 1 μg/ml and was added to each well, 50 μl/well. Then the plate was incubated in the incubator at 37° C. for 1 h or overnight at 4° C. After incubation, the reaction solution in the plate was discarded, and the plate was washed with PBST for 6 times, and then was added with 50 μl/well of various concentrations of antibodies to be tested (hybridoma purified antibody or humanized antibody) which have been diluted with sample diluent, and the plate was incubated at 37° C. for 1 h. The plates was washed 5 times with PBST after incubation, and was added with 100 μl/well of goat anti-mouse (Jackson Immuno Research, Cat No. 115-035-003) or goat anti-human secondary antibody (Jackson Immuno Research, Cat No. 109-035-003) labeled with HRP, diluted in sample diluent, and the plate was incubated at 37° C. for 1 h.

[3] = target: T3, Fusion protein of LAG-3 extracellular region and hIgG1 Fc (human); assay: competition: biotin-LAG-3-Fc binding to fixed Daudi cells, antibody titrated
T3 construct: Limits of the signal peptide are marked only by lost underlining; also called LAG-3-Fc; LAG-3-Fc fusion protein
T3 sequence (chain, as listed by the source limits assumed): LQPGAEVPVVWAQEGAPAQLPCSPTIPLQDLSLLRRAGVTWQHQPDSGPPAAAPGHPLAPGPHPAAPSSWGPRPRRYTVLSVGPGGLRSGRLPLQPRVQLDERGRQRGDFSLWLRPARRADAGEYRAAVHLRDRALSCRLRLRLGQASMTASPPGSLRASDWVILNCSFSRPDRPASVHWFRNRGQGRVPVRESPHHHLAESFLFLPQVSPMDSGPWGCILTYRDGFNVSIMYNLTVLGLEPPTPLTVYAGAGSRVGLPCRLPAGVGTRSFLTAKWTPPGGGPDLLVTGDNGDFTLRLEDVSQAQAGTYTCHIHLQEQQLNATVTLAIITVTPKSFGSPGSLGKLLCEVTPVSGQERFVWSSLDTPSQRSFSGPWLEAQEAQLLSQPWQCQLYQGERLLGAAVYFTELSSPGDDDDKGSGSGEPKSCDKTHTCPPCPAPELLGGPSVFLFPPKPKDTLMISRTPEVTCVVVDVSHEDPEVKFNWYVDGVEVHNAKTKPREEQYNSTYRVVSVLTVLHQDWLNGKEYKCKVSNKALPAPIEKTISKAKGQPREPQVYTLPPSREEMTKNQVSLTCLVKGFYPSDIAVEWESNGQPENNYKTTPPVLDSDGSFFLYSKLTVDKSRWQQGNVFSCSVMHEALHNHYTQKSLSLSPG
Method: Daudi cells (human leukemia cells, purchased from the cell bank in Chinese Academy of Sciences) were seeded in 96-well plate with a density of 3×10⁵/well. After centrifugation at 1000 rpm, the supernatant was discarded and then the plate was fixed with 4% PFA for 30 min at room temperature. The plate was washed 4 times with PBS after discarding the fixed solution, and the plate was blocked with 200 μl/well of blocking solution containing 5% skim milk (Bright Dairy, skim milk powder) diluted in PBS, and incubated at 37° C. for 2.5 hours. After blocking, the blocking solution was discarded and the plate was washed 5 times with PBST buffer (pH7.4 PBS containing 0.05% tween-20), added with 50 μl/well mixture of biotin-labeled (Biotin labeling kit, Dojindo Chemical, Cat No. LK03) LAG-3-Fc fusion protein (produced in-house, SEQ ID NO: 3) and gradient concentrations of the antibody to be tested, wherein the biotin-labeled LAG-3-Fc fusion protein has been diluted with sample diluent (PH7.4 PBS containing 1% BSA) at a final concentration of 0.4 μg/ml, and pre-mixed for an hour, then the plate was incubated at 37° C. for 1 h. The reaction solution was discarded and the plate was washed 5 times with PBST after incubation, 50 μl/well of HRP-labeled Streptavidin (Sigma, Cat No. 52438) diluted with sample diluent was added, and the plate was incubated at 37° C. for 1 h. After washing the plate 5 times with PBST, 50 μl/well of TMB chromogenic substrate (KPL, Cat No. 52-00-03) was added to each well, and incubated at room temperature for 5-15 min, the reaction was stopped by the addition of 50 μl 1M H₂SO₄ to each well. The OD value at a wavelength of 450 nm was read on NOVOStar microplate reader, and then the activity of the LAG-3 antibody in blocking the binding of the antigen to Daudi cells was calculated.

Row | Kd [1] [nM] | EC50 [2] [nM] | IC50 [3] [nM] | Binder
1 | 1.06 | 0.278 | 0.502 | Hu303-004 (antibody, human IgG4 S228P, kappa, V domains shown, Humanized mAb303) VH: QVQLVQSGAEVKKPGASVKVSCKASGYTFTDYYMNWVRQAPGQRLEWMGVINPYNGDTAYNQKFKGRVTITRDTSASTAYMELSSLRSEDTAVYYCARDDGYYDYYFDVWGQGTTVTVSS VL: DIQMTQSPSSLSASVGDRVTITCRASQDIGSRLNWYQQKPGKAPKLLIYATSTLDSGVPSRFSGSGSGTDFTLTISSLQPEDFATYYCLQLASSPPTFGGGTKVEIKR
2 | 0.0715 | 0.309 | 0.622 | Hu303-005 (antibody, human IgG4 S228P, kappa, V domains shown, also called LAG-3 antibody Hu303-005; LAG3 antibody Hu303-005) VH: QVQLVQSGAEVKKPGASVKVSCKASGYTFTDYYMNWVRQAPGQRLEWMGVINPYNGDTAYNQKFKGRVTITRDTSASTAYMELSSLRSEDTAVYYCARDDGYYDYYFDVWGQGTTVTVSS VL: DIQMTQSPSSLSASVGDRVTITCRASQDIGSRLNWYQQKPGKAPKRLIYATSTLDSGVPSRFSGSRSGTDFTLTISSLQPEDFATYYCLQLASSPPTFGGGTKVEIKR
3 | 0.0753 | 0.288 | 0.821 | Hu303-006 (antibody, human IgG4 S228P, kappa, V domains shown, Humanized mAb303) VH: QVQLVQSGAEVKKPGASVKVSCKASGYTFTDYYMNWVRQAPGQRLEWMGVINPYNGDTAYNQKFKGRVTITRDTSASTAYMELSSLRSEDTAVYYCARDDGYYDYYFDVWGQGTTVTVSS VL: DIQMTQSPSSLSASVGDRVTITCRASQDIGSRLNWYQQKPGKAPKRLIYATSTLDSGVPKRFSGSRSGTDFTLTISSLQPEDFATYYCLQLASSPPTFGGGTKVEIKR
4 | 0.943 | 0.316 | 0.417 | Hu303-009 (antibody, human IgG4 S228P, kappa, V domains shown, Humanized mAb303) VH: QVQLVQSGAEVKKPGASVKVSCKASGYTFTDYYMNWVRQAPGQRLEWMGVINPYNGDTAYNQKFKGRVTITVDKSASTAYMELSSLRSEDTAVYYCTRDDGYYDYYFDVWGQGTTVTVSS VL: DIQMTQSPSSLSASVGDRVTITCRASQDIGSRLNWYQQKPGKAPKLLIYATSTLDSGVPSRFSGSGSGTDFTLTISSLQPEDFATYYCLQLASSPPTFGGGTKVEIKR
5 | 0.491 | 0.232 | 0.467 | Hu303-014 (antibody, human IgG4 S228P, kappa, V domains shown, Humanized mAb303) VH: QVQLVQSGAEVKKPGASVKVSCKASGYTLTDYYMNWVRQAPGQRLEWMGVINPYNGDTAYNQKFKGRVTITVDKSASTAYMELSSLRSEDTAVYYCTRDDGYYDYYFDVWGQGTTVTVSS VL: DIQMTQSPSSLSASVGDRVTITCRASQDIGSRLNWYQQKPGKAPKLLIYATSTLDSGVPSRFSGSGSGTDFTLTISSLQPEDFATYYCLQLASSPPTFGGGTKVEIKR
6 | 0.0748 | 0.161 | 0.395 | Hu303-016 (antibody, human IgG4 S228P, kappa, V domains shown, Humanized mAb303) VH: QVQLVQSGAEVKKPGASVKVSCKASGYTLTDYYMNWVRQAPGQRLEWMGVINPYNGDTAYNQKFKGRVTITVDKSASTAYMELSSLRSEDTAVYYCTRDDGYYDYYFDVWGQGTTVTVSS VL: DIQMTQSPSSLSASVGDRVTITCRASQDIGSRLNWYQQKPGKAPKRLIYATSTLDSGVPKRFSGSRSGTDFTLTISSLQPEDFATYYCLQLASSPPTFGGGTKVEIKR
7 |  | 0.145 | 0.36 | Hu303-022 (antibody, human IgG4 S228P, kappa, V domains shown, Humanized mAb303) VH: QVQLVQSGAEVKKPGASVKVSCKASGYTLTDYYMNWVRQAPGQRLEWIGVINPYNGDTAYNQKFKGRATLTVDKSASTAYMELSSLRSEDTAVYYCTRDDGYYDYYFDVWGQGTTVTVSS VL: DIQMTQSPSSLSASVGDRVTITCRASQDIGSRLNWLQQKPGKAFKRLIYATSTLDSGVPKRFSGSRSGTDFTLTISSLQPEDFATYYCLQLASSPPTFGGGTKVEIKR
8 |  | 0.152 | 0.369 | Hu303-023 (antibody, human IgG4 S228P, kappa, V domains shown, Humanized mAb303) VH: QVQLVQSGAEVKKPGASVKVSCKASGYTLTDYYMNWVRQAPGQRLEWIGVINPYNGDTAYNQKFKGRATLTVDKSASTAYMELSSLRSEDTAVYYCTRDDGYYDYYFDVWGQGTTVTVSS VL: DIQMTQSPSSLSASVGDRVTLTCRASQDIGSRLNWLQQKPGGAFKRLIYATSTLDSGVPKRFSGSRSGTDFTLTISSLQPEDFADYYCLQLASSPPTFGGGTKVEIKR
9 |  | 0.201 | 0.566 | Hu229-011 (antibody, human IgG4 S228P, kappa, V domains shown, Humanized mAb229) VH: QVQLVQSGSELKKPGASVKVSCKASGYTFTTSGMSWVRQAPGQGLKWMGWINTYSGVPTYADDFKGRFVFSLDTSVSTAYLQISSLKAEDTAVYYCARDNYDARDVYYYAMDYWGQGTTVTVSS VL: DIQMTQSPSSLSASVGDRVTITCRASENIYSNLAWYQQKPGKSPKLLVYAATNLADGVPSRFSGSGSGTQYTLTISSLQPEDFATYYCQHFWITPWTFGGGTKVEIKR
10 |  | 0.154 | 0.875 | Hu229-016 (antibody, human IgG4 S228P, kappa, V domains shown, Humanized mAb229) VH: QVQLVQSGSELKKPGASVKVSCKASGYTFTTSGMSWVKQAPGQGLKWMGWINTYSGVPTYADDFKGRFVFSLDTSVSTAYLQISSLKAEDTATYFCARDNYDARDVYYYAMDYWGQGTTVTVSS VL: DIQMTQSPSSLSASVGDRVTITCRASENIYSNLAWYQQKPGKAPKLLIYAATNLADGVPSRFSGSGSGTDFTLTISSLQPEDFATYYCQHFWITPWTFGGGTKVEIKR
